{"source": "paper PMC10609481", "about": "“Substrate DNA Promoting Binding of Mycobacterium tuberculosis MtrA by Facilitating Dimerization and Interpretation of Affinity by Minor Groove Width”", "data": [{"biological_target": "T1, MtrA (Mycobacterium tuberculosis H37Rv, UniProt P9WGM7 1-228)", "T1 sequence": "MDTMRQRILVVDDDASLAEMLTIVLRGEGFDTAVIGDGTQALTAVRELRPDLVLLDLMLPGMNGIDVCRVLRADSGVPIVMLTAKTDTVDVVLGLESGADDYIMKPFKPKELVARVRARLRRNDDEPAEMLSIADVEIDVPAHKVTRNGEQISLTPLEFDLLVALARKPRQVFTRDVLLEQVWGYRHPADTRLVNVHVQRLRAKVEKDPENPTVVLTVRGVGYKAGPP", "assay": "BLI", "conditions": "protein: recombinant; tags: His6 (pET28a, BamHI/XhoI; N-terminal, inferred from stop codon in reverse primer); chain copies: 2; blunt", "units": {"Kd": "µM"}, "values": [{"binder": "Rv3859c G20A T21A (dsDNA) DNA 1: GTTACGTGATCGAATTGTGAACCAGG DNA 2: CCTGGTTCACAATTCGATCACGTAAC", "Kd": 19.5}, {"binder": "Rv3859c G20C (dsDNA) DNA 1: GTTACGTGATCGAATTGTGCTCCAGG DNA 2: CCTGGAGCACAATTCGATCACGTAAC", "Kd": 7120}, {"binder": "Rv3859c G20A (dsDNA) DNA 1: GTTACGTGATCGAATTGTGATCCAGG DNA 2: CCTGGATCACAATTCGATCACGTAAC", "Kd": 0.178}, {"binder": "Rv3859c G20T (dsDNA) DNA 1: GTTACGTGATCGAATTGTGTTCCAGG DNA 2: CCTGGAACACAATTCGATCACGTAAC", "Kd": 4380}, {"binder": "Rv3859c G20A T21G (dsDNA) DNA 1: GTTACGTGATCGAATTGTGAGCCAGG DNA 2: CCTGGCTCACAATTCGATCACGTAAC", "Kd": 15.7}, {"binder": "Rv3859c G20A T21C (dsDNA) DNA 1: GTTACGTGATCGAATTGTGACCCAGG DNA 2: CCTGGGTCACAATTCGATCACGTAAC", "Kd": 0.124}]}]}
